From the DeepSol protein solubility set

experiment: soluble on expression in E. coli; label from the status in PepcDB or PDB records

For “MSLSQIISSNDVDFQAYMAEAEPQAKVLAAEAWRDDLVRTVEHGDQITGAKLPWSKTHDLLRFRPGEVTLWQGINGHGKSELLGQACIGFATQGERVCIASFEMKPQATLKRMLRQTAMNARPGVQAVDRLIDWSRDRLWLYDQQGTVTPAMLYAVIRYCADRLKVRHMVIDSLMKCVRGEDDYNGQKDFVDMLCTLARDLRMHIHLVHHAKKGENEDQVPGKFSAKGSGAIVDQVDQMLTVWRNKKKERIAEAELRKDGEVSADTHDSPDTLLICDKNRHGEWEGRIQLWRHADSLQFTGDKRRQPLDMIGALAEGHHHHHH”, which “soluble on expression in E. coli” value is on record?
Its value is “soluble”.

Which “soluble on expression in E. coli” value does the source give for “MSLGITRVVLADDHAVVRAGLRTALAALPDCEVVSEAATGPQLLAVLAQHHPDLLVVDVAMPDFDPIATIRQIHADYPAMKILVVSAYDDQSYVVGLLAAGVNGYHLKDQPLSDLQLAVQRIMAGGNWISSPLLSRLIQAAPQIAHSSPITLTKRQRDLLRLIAQGYDNRRMAQEMDLSIKTIENHLTALYRTIRVSSRLEAYQFALRHPELLAESGHEAALSREPSTSPAPLMVMIIDDNERYRAQLKRMIGKACAESQIYEAEDCHEATRLLRQITPDLVFVDVILQDGDGIQCLRRLKSVSPHTRVILISAYPDREFRRLGLEAGALAFLDKKDLDAATVRQVVEDTLRREGHHHHHH” here?
Its value is “soluble”.

Which “soluble on expression in E. coli” value does the source give for “MSLSRPLLFALTALSLTAASLAHAADKKAADKPAPSAVSKADKALHDKFLTLDTHLDTPAHFGRPGWDIADHHEVEHDFSQVDLPRMNQGGLDGGFFVVYIGQGELTEKGYTYARDYALHRTIEIREMLAANPDTFEMALTSDDARRIAKAGKKFAFVSMENSWPVGEDLSLVETFYKEGLRMAGPVHFRNNQLADSSTDPKGKIWNGYSPLGLRWLAEANRLGIVIDVSHASDDVVDQSVALSKAPIIASHSGPKAVYDHPRNLDDARLKKIADAGGAICINSIYLTDTTPSPERKAALEALGRAPDMKTATPEAVKAYADKRAAIDKAHPAARGDFDLYMKSMLHVLKVAGPKGVCVGADWDGGGGMDGFEDITDLPKITARLKAEGYSDADIEAIWSGNVLRIVDAAQAYAKSVTKEGHHHHHH” here?
Its value is “soluble”.

For “EMETYVNKLHEGSTYTAAVQYNVLEKDDDPASLTIWVPMFQSSMPADLLIKELANVNILVKQISTPKGPSLRVMINSRSAVLAQMPSKFTICANVSLDDRSKLAYDVTTPCEIKACSLTCLKSKNMLTTVKDLTMKTLNPTHDIIALCEFENIVTSKKVIIPTYLRSISVRNKDLNTLENITTTEFKNAITNAKIIPYSGLLLVITVTDNKGAFKYIKPQSQFIVDLGAYLEKESIYYVTTNWKHTATRFAIKPRED”, which “soluble on expression in E. coli” value is on record?
Its value is “soluble”.

With “AHHHHHHGSTIKAPTLNVPGLGVDPLTQRIKEKEKKWKYKIAVLSGKGGVGKSTVAVNLTAALAKMGYFVGILDADIHGPNVAKMFGIGNTDIYAEKFEDGHFEMIPPTVDFMGQVTPIKVMSMGMMVPEDQPIIWRGSLVTKAIKQLLGDVMWGELDFMIIDFPPGTGDEILTVVQSIQLDAAIVVTTPQEVALLDTGKAVNMMKKMEVPYIAVIENMSYLICPHCGNKIDIFGEGGGEKLAEKEGVDFLGKVPIDLKAREASDLGIPIVLYGDTPAAKAFMEIAEKLVNKLKEIKGDGREK” as the sequence, how does the “soluble on expression in E. coli” value read?
The value was “not soluble”.

For “MSLRYLRFLTAGESHGKGLTAILEGIPANLPLSEEEINHELRRRQRGYGRGGRMKIEKDTAEILSGVRFGKTLGSPIALFIRNRDWENWKEKMAIEGEPSPSVVPFTRPRPGHADLSGGIKYNQRDLRNILERASARETAARVAVGAVCKKFLSEFGIKIGSFVVSIGQKEVEELKDKSYFANPEKLLSYHEKAEDSELRIPFPEKDEEFKTYIDEVKEKGESLGGVFEVFALNVPPGLGSHIQWDRRIDGRIAQAMMSIQAIKGVEIGLGFEAARRFGSQVHDEIGWSEGKGYFRHSNNLGGTEGGITNGMPIVVRVAMKPIPTLKNPLRSVDIETKEEMKAGKERTDIVAVPAASVVGEAMLAIVLADALLEKLGGDFMEEVKKRFEDYVNHVKSF”, which “soluble on expression in E. coli” value is on record?
Its value is “soluble”.

For “MSLAANMYRVGDYVYFENSSSNPYLVRRIEELNKTANGNVEAKVVCLFRRRDISSSLNSLADSNAREFEEESKQPGVSEQQRHQLKHRELFLSRQFESLPATHIRGKCSVTLLNETDILSQYLEKEDCFFYSLVFDPVQKTLLADQGEIRVGCKYQAEIPDRLVEGESDNRNQQKMEMKVWDPDNPLTDRQIDQFLVVARAVGTFARALDCSSSIRQPSLHMSAAAASRDITLFHAMDTLQRNGYDLAKAMSTEGHHHHHH”, which “soluble on expression in E. coli” value is on record?
The value was “not soluble”.

Which “soluble on expression in E. coli” value does the source give for “MANTGSLVLLRHGESDWNALNLFTGWVDVGLTDKGQAEAVRSGELIAEHDLLPDVLYTSLLRRAITTAHLALDSADRLWIPVRRSWRLNERHYGALQGLDKAETKARYGEEQFMAWRRSYDTPPPPIERGSQFSQDADPRYADIGGGPLTECLADVVARFLPYFTDVIVGDLRVGKTVLIVAHGNSLRALVKHLDQMSDDEIVGLNIPTGIPLRYDLDSAMRPLVRGGTYLDPEAAAAGAAAVAGQGRGGVPRGAAALEHHHHHH” here?
The value was “soluble”.

Which “soluble on expression in E. coli” value does the source give for “RQFQILLQQINMTDDTFMTYFEHGEIKKLTIHKASKSWHFHFQFKSLLPFQIYDTLTTRLTQSFAHIAKVTSSIEVQDAEVSESIVQDYWSRCIEELQGISPPIISLLNQQKPKLKGNKLIVKTKTDTEAAALKNKYSSMIQA” here?
The value was “not soluble”.

With “MGSDKIHHHHHHMAKVPAKAKPEHALLAVPRELMPRDLRVSLHDYTRGGTDRFLTNGQGAKQDMTGFEDQYVNIIDYIVRITHRIWEEKDIGYIYDTYAHNCRVWDDVGLQYGRDKIVADTTHTINAFPDVKLYADEVIWAGDAEHGFHTSHRTVIKGTNTGFSRWGPPTMRPVNVWCIANCVARENEIFEEHVQYNLGAMLQQLGFDLRALAATARAIGIETDPLFAASGRTRVPGQGKPAHGTPRGDGPFDVADFLCSMTQDVWNRRMLSRLTRAYAPALNYQGPTNRSYRSLAQYQSALLSLLAMFPDLSFEPEALYYMEDGKGTTWSSLRWSATGSHGGFGPYGTPTGREVRIWGITQHKIEGETITEEWMQFNEFDLLRQLAPDPVV” as the sequence, how does the “soluble on expression in E. coli” value read?
The value was “not soluble”.

With “MGSDKIHHHHHHMLIKLNDYEKNITQKIKDLKNASGSHSPSIFTMAEQIPELNIKIDSCFLSNPYATALFLRYLKEELIDGQKLRSVLEFYPSQNSIIAKTVADFIGIDPKNVFIGNGAIEIIQAVMHNFVGKKIIVNIPTFSSYYEFAKSETNVVYYQLSKEDNYNLNIEHYLNFVKNENPDSVVLINPNNPDGGYINYEKLRYILSELKYVKNIIIDESFIHFAYENKDYNGINIEYLFKEFHNTIIIKSMSKDFGVAGIRIGYAIMSEDKIRGLLKNGYLWNSSGLSEYFLRLYVRKNFFDEYDKVRREYIQETQTFFRKLSGIKQFKVYPSMANFALVELLDGSSSTDFVAKMLIKYGIYMRTCNDKIGLEGEFIRIASRTLEENDMVLKSICDVFKE” as the sequence, how does the “soluble on expression in E. coli” value read?
The value was “not soluble”.

Which “soluble on expression in E. coli” value does the source give for “NGEEHEQTHRAIFRFVPRHEDELELEVDDPLLVELQAEDYWYEAYNMRTGARGVFPAYYAIEVTKEPEHMA” here?
Its value is “soluble”.

For “MGYRNTGSPPPPQIGGLYGDRNPNPYGTVNLGGGSPYPGGLEEYNIRPAAPFSGLVGGSRSGYYGSTVGMRRGAVVPPMSSRKTKIPQTEYPPDYASNDLMNSFNGATNSAIPSLRELATYASRYGPAYLRERFGSHDSQLERMLYGGSGPQIPSRGGGIPIDYNMNIASNHWNRGIGSPMGIMSRDVDSYQHDDAAKANKKTTTGSPSTTSTRKPRKARKPTKKTVAAAPSSSSNTSTTAKPAKTVKTSEKSA”, which “soluble on expression in E. coli” value is on record?
The value was “not soluble”.

For “MAPVLSKDVADIESILALNPRTQSHAALHSTLAKKLDKKHWKRNPDKNCFHCEKLENNFDDIKHTTLGERGALREAMRCLKCADAPCQKSCPTHLDIKSFITSISNKNYYGAAKMIFSDNPLGLTCGMVCPTSDLCVGGCNLYATEEGSINIGGLQQFASEVFKAMNIPQIRNPCLPSQEKMPEAYSAKIALLGAGPASISCASFLARLGYSDITIFEKQEYVGGLSTSEIPQFRLPYDVVNFEIELMKDLGVKIICGKSLSENEITLNTLKEEGYKAAFIGIGLPEPKTDDIFQGLTQDQGFYTSKDFLPLVAKSSKAGMCACHSPLPSIRGAVIVLGAGDTAFDCATSALRCGARRVFLVFRKGFVNIRAVPEEVELAKEEKCEFLPFLSPRKVIVKGGRIVAVQFVRTEQDETGKWNEDEDQIVHLKADVVISAFGSVLRDPKVKEALSPIKFNRWDLPEVDPETMQTSEPWVFAGGDIVGMANTTVESVNDGKQASWYIHKYIQAQYGASVSAKPELPLFYTPVDLVDISVEMAGLKFINPFGLASAAPTTSSSMIRRAFEAGWGFALTKTFSLDKDIVTNVSPRIVRGTTSGPMYGPGQSSFLNIELISEKTAAYWCQSVTELKADFPDNIVIASIMCSYNKNDWMELSRKAEASGADALELNLSAPHGMGERGMGLACGQDPELVRNICRWVRQAVQIPFFAKLTPNVTDIVSIARAAKEGGADGVTATNTVSGLMGLKADGTPWPAVGAGKRTTYGGVSGTAIRPIALRAVTTIARALPGFPILATGGIDSAESGLQFLHSGASVLQVCSAVQNQDFTVIQDYCTGLKALLYLKSIEELQGWDGQSPGTESHQKGKPVPRIAELMGKKLPNFGPYLEQRKKIIAEEKMRLKEQNAAFPPLERKPFIPKKPIPAIKDVIGKALQYLGTFGELSNIEQVVAVIDEEMCINCGKCYMTCNDSGYQAIQFDPETHLPTVTDTCTGCTLCLSVCPIIDCIRMVSRTTPYEPKRGLPLAVNPVC”, which “soluble on expression in E. coli” value is on record?
The value was “soluble”.

With “MNATAVAAAATGRQLHKFGGSSLADVKCYLRVANIMANYSHPGDLMVVSAAGSTTNQLISWLKLSQNDRLSAHQVQQSLRRYQHDLINGLLPPEMAEPLISEFIHDLERLAGLLDNKIDDVIYAEVVGHGEIWSARLMSALLNKLDMDAVWLDARRFLRAERAAQPQIDESRSYPLLQQLMAQHPHQRLVVTGFISRNEAGETVLLGRNGSDYSATQVGALAGAERVTIWSDVAGVYSADPRKVKDACLLPLLRLDEASELARLAAPVLHTRTLQPVSGSDIDLQLRCSYQPEQGSTRIERVLASGLGAKIVTSHDDVCLIELQIASHHDFSLAQKEIDLLLKRAQIKPLATGIHPDRNLLQLCYTSEVVNSALRVLEDAALPGKLSLREGLALVALVGAGVSKNPLHSHRFYQQLKDQPVEFVWQAEDGISMVAVLRLGPTEHLIQGLHQSLFRAEKRIGLMLFGKGNIGARWLELFAREQKSLSARSGFEFVLAGVVDSRRSLLSYDGLDASRTLAFYNDEAKEQDEESLFLWMRAHPFDDLVVLDVTASPSLAEQYLDFASYGFHVISANKLAGASSSNNYRQIRDAFAKTGRHWLYNATVGAGLPVNHTVRDLRDSGDSILAISGIFSGTLSWLFLQFDGSVPFTELVDQAWQQGLTEPDPRVDLSGQDVMRKLVILAREAGYDIEPNQVRVESLVPAGAESGSVDQFFENGEALNQQMIQRLEAAKEMGLVLRYVARFDANGKARVGVEAVRTDHPLASLLPCDNVFAIESRWYRDNPLVIRGPGAGRDVTAGAIQSDLNRLSQLL” as the sequence, how does the “soluble on expression in E. coli” value read?
Its value is “not soluble”.

Which “soluble on expression in E. coli” value does the source give for “GPLGSKAPTVFSQNEASLLNQLKNIANREDYVVTWWDYGYPVRYYSDVKTLVDGGKHLGKDNFFPSFALSKDEQAAANMARLSVEYTEKSFYAPQNDILKSDILQAMMKDYNQSNVDLFLASLSKPDFKIDTPKTRDIYLYMPARMSLIFSTVASFSFINLDTGVLDKPFTFSTAYPLDVKNGEIYLSNGVVLSDDFRSFKIGDNVVSVNSIVEINSIKQGEYKITPIDDKAQFYIFYLKDSAIPYAQFILMDKTMFNSAYVQMFFLGNYDKNLFDLVINSRDAKVFKLKI” here?
Its value is “soluble”.

For “MLSEVLLVSAPGKVILHGEHAVVHGKVALAVSLNLRTFLRLQPHSNGKVDLSLPNIGIKRAWDVARLQSLDTSFLEQGDVTTPTSEQVEKLKEVAGLPDDCAVTERLAVLAFLYLYLSICRKQRALPSLDIVVWSELPPGAGLGSSAAYSVCLAAALLTVCEEIPNPLKDGDCVNRWTKEDLELINKWAFQGERMIHGNPSGVDNAVSTWGGALRYHQGKISSLKRSPALQILLTNTKVPRNTRALVAGVRNRLLKFPEIVAPLLTSIDAISLECERVLGEMGEAPAPEQYLVLEELIDMNQHHLNALGVGHASLDQLCQVTRARGLHSKLTGAGGGGCGITLLKPGLEQPEVEATKQALTSCGFDCLETSIGAPGVSIHSATSLDSRVQQALDGL”, which “soluble on expression in E. coli” value is on record?
Its value is “soluble”.
